Assay results reported in publication PMC2565473, “A Ligand Peptide Motif Selected from a Cancer Patient Is a Receptor-Interacting Site within Human Interleukin-11” (PLoS ONE, 2008).
Bridges are numbered along the chain shown (N, C = ends). Where no end group is shown, it is not given here.

B1: IL-11Rα (recombinant, extracellular domain fused to the Fc region of human IgG) (Fc fusion, UniProt Q14626 24-370, looked up)
chain: SPCPQAWGPPGVQYGQPGRSVKLCCPGVTAGDPVSWFRDGEPKLLQGPDSGLGHELVLAQADSTDEGTYICQTLDGALGGTVTLQLGYPPARPVVSCQAADYENFSCTWSPSQISGLPTRYLTSYRKKTVLGADSQRRSPSTGPWPCPQDPLGAARCVVHGAEFWSQYRINVTEVNPLGASTRLLDVSLQSILRPDPPQGLRVESVPGYPRRLRASWTYPASWPCQPHFLLKFRLQYRPAQHPAWSTVEPAGLEEVITDAVAGLPHAVRVSARDFLDAGTWSTWSPEAWGTPSTGTIPKEIPAWGQLHTQPEVEPQVDSPAPPRPSLQPHPRLLDHRDSVEQVAVLA
notes: human interleukin-11 receptor alpha, extracellular domain; The methods of the NMR and of the proliferation assay name only 'IL-11Rα' or 'human sIL-11Rα'; also called IL-11 receptor α; sIL-11Rα; source: bought: R&D Systems

Legend:
GST-IL-11 R113A (human) = GST-IL-11 R113A (human) (UniProt P20809); assay: ELISA; GST fusion proteins coated overnight on 96-well plates at 5 µg/ml, blocked with 3% BSA in PBS; IL-11Rα (1 µg/ml) incubated for 2 h; detected with anti-human Fc HRP-conjugated antibody
GST-IL-11 G115A = target: T1, GST-IL-11 G115A (human, UniProt P20809 22-199, G115A); assay: as above; details: both partners purified
T1 construct: human interleukin-11, open reading frame in pGEX4T-1, alanine mutant made on the GST-IL-11 plasmid; As m7 with the mutation; also called Gly^115 mutant; source: E. coli BL21, purified from inclusion bodies (solubilized in 6 M guanidine-HCl)
T1 sequence (looked up): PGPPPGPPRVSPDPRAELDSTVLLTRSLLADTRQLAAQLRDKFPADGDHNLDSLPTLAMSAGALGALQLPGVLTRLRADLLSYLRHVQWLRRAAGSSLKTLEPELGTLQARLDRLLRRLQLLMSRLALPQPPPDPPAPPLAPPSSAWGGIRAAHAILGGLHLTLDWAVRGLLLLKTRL

GST-IL-11 G116A = target: T2, GST-IL-11 G116A (human, UniProt P20809 22-199, G116A); assay: as above; details: both partners purified
T2 construct: human interleukin-11, open reading frame in pGEX4T-1, alanine mutant made on the GST-IL-11 plasmid; As m7 with the mutation; also called Gly^116 mutant; source: E. coli BL21, purified from inclusion bodies (solubilized in 6 M guanidine-HCl)
T2 sequence (looked up): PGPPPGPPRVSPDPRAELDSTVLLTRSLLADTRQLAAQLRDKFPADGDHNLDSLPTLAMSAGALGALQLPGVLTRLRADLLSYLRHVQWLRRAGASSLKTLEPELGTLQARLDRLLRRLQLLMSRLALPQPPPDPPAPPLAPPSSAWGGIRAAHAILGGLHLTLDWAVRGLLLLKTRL

GST-IL-11 S117A = target: T3, GST-IL-11 S117A (human, UniProt P20809 22-199, S117A); assay: as above; details: both partners purified
T3 construct: human interleukin-11, open reading frame in pGEX4T-1, alanine mutant made on the GST-IL-11 plasmid; As m7 with the mutation; also called Ser^117 mutant; source: E. coli BL21, purified from inclusion bodies (solubilized in 6 M guanidine-HCl)
T3 sequence (looked up): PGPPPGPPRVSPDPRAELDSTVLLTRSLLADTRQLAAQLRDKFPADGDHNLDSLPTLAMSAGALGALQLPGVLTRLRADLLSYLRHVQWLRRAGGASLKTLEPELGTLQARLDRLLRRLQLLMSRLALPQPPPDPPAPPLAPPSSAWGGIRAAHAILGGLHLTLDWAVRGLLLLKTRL

GST-IL-11 R112A = target: T4, GST-IL-11 R112A (human, UniProt P20809 22-199, R112A); assay: as above; details: both partners purified
T4 construct: human interleukin-11, open reading frame in pGEX4T-1, alanine mutant made on the GST-IL-11 plasmid; As m7 with the mutation; also called Arg^112 mutant; source: E. coli BL21, purified from inclusion bodies (solubilized in 6 M guanidine-HCl)
T4 sequence (looked up): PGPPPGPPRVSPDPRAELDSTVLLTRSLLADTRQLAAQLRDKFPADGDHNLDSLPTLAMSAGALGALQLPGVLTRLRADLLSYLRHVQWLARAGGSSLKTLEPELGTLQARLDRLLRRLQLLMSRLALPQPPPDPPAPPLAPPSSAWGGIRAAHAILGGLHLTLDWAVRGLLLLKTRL

[1] = target: B1; assay: NMR titration; 1D-1H and 2D-1H TOCSY/NOESY at 600 MHz; IL-11Rα 6 µM, peptide up to 400 µM (molar excess ∼16-, 33- and 66-fold); 50 mM sodium phosphate, 5 mM sodium azide, 10% D2O; 25°C; details: both partners purified
[2] = target: B1; assay: phage binding assay; alanine-scanning phage on immobilized IL-11Rα, done as a1; result given as grade of the ratio binding to IL-11Rα / binding to BSA; in duplicate, repeated at least four times; details: one partner purified

B1
% binding inhibition relative to wild-type IL-11 (GST-IL-11 R113A (human)): 86%
% binding inhibition relative to wild-type IL-11 (GST-IL-11 G115A): 71%
% binding inhibition relative to wild-type IL-11 (GST-IL-11 G116A): 29%
% binding inhibition relative to wild-type IL-11 (GST-IL-11 S117A): 86%
% binding inhibition relative to wild-type IL-11 (GST-IL-11 R112A): 43%

B2: synthetic cyclic peptide CGRRAGGSC (peptide)
peptide: CGRRAGGSC
modifications: disulfide 1-9
notes: peptide selected from a combinatorial phage library in a cancer patient; RRAGGS corresponds to residues 112-117 of human IL-11; also called IL-11-like peptide; source: synthetic peptide, synthesized and cyclized at AnaSpec
binding result [1]: binds

B3: CGARAGGSC phage (Arg^3 to Ala mutant of the … phage) (peptide)
peptide: CGARAGGSC
notes: source: phage display, cloned into SfiI-digested fUSE5 vector
% reduction of binding relative to the … phage [2]: > 70%

B4: CGRRAAGSC phage (Gly^6 to Ala mutant of the … phage) (peptide)
peptide: CGRRAAGSC
notes: as for B3
% reduction of binding relative to the … phage [2]: > 70%
